Assay results taken from patent US20230212549A1, “COMPOUNDS COMPRISING A […] LIGAND AND USE THEREOF” (priority 2021, published 2023).
Bridge positions count the residues as written; N and C are the ends.

T1: 5-HT3 (h) (human), P46098
T1 chain: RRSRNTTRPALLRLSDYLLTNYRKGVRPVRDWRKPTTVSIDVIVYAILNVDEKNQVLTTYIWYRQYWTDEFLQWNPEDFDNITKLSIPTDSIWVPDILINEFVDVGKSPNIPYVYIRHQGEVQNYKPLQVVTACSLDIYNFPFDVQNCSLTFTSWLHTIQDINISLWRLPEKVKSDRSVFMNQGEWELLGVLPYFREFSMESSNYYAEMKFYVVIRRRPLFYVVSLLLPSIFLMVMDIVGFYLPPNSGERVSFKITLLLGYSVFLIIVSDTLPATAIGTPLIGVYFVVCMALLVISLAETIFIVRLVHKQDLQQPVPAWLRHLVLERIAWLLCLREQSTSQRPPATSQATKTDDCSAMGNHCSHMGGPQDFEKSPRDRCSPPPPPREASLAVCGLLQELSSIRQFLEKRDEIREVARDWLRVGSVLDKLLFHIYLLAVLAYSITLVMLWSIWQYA

T2: Ubiquitin carboxy-terminal hydrolase L3, P15374
T2 chain: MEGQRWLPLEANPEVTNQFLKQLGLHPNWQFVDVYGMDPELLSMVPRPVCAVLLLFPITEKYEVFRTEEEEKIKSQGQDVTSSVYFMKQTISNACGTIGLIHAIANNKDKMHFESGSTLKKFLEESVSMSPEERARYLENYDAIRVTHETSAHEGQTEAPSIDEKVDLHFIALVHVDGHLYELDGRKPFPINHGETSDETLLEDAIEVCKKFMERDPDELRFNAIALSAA

T3: Matrix metalloprotease 1, P03956
T3 chain: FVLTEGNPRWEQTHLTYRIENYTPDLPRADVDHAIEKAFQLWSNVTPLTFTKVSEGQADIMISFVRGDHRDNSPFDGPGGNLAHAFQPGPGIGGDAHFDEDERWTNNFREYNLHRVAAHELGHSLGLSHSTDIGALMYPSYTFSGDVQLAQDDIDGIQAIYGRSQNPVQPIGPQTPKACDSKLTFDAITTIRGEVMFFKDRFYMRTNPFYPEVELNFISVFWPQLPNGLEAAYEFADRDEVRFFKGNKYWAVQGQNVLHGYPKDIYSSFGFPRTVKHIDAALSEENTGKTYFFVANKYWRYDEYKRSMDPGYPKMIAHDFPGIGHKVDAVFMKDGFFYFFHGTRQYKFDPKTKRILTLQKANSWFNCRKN

T4: COX1(h) (human), P23219
T4 chain: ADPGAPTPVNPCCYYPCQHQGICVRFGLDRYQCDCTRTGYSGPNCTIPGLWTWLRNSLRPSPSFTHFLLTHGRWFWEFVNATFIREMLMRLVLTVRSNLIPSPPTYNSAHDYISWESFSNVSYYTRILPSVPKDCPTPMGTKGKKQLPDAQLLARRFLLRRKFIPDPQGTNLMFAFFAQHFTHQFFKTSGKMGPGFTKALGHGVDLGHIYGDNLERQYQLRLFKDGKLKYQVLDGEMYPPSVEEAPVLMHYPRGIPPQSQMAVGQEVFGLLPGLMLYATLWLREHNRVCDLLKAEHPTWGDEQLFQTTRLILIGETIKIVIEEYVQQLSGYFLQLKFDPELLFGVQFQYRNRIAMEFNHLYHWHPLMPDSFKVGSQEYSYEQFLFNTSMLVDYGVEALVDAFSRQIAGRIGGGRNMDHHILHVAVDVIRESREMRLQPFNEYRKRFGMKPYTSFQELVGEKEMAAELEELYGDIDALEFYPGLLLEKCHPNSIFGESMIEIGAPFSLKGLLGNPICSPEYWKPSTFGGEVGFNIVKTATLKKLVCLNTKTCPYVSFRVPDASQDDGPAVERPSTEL

T5: A20, P21580
T5 chain: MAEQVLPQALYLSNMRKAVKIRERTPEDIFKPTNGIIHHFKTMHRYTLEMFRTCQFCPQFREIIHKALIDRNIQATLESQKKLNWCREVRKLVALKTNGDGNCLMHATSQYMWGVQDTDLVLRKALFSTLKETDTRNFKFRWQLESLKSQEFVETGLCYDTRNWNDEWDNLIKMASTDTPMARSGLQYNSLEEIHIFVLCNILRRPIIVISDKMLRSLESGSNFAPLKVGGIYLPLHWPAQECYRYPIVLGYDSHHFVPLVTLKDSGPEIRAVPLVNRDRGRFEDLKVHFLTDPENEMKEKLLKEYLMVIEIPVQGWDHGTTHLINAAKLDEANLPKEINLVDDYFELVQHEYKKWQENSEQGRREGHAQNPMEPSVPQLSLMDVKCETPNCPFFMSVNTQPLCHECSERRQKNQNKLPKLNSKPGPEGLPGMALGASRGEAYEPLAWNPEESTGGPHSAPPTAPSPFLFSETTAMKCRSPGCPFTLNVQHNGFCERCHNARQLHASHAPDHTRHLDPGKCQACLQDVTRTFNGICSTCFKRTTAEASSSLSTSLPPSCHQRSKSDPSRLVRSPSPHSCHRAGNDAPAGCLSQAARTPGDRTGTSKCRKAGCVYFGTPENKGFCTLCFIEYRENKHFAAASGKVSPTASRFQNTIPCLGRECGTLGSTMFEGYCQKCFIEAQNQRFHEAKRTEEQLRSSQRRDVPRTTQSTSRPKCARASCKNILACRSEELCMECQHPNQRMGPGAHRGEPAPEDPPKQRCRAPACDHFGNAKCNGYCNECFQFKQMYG


What was measured:
[1] = molecular target: T1, 5-HT3 (h) (human), P46098; test: radioligand displacement (antagonist radioligand), 10 µM; conditions: remark: other sources report otherwise
Na+ channel (site 2) = test: as above
[2] = molecular target: T2, Ubiquitin carboxy-terminal hydrolase …; test: cell-based or functional assay
[3] = molecular target: T3, Matrix metalloprotease 1, P03956; test: cell-based or functional assay
COX1(h) (human), P23219 = molecular target: T4, COX1(h) (human), P23219; test: cell-based or functional assay
A20, P21580 = molecular target: T5, A20, P21580; test: cell-based or functional assay

Row | Binder | % Inhibition of Specific Binding [1] [%] | % Inhibition of Specific Binding (Na+ channel (site 2)) [%] | Percentage inhibition (%) at 1 µM [2] [%] | Percentage inhibition (%) at 10 µM [2] [%] | Percentage inhibition (%) at 1 µM [3] [%] | Percentage inhibition (%) at 10 µM [3] [%] | % inhibition of control enzyme activity, compound at 10 µM (COX1(h) (human), P23219) [%] | Percentage inhibition (%) at 1 µM (A20, P21580) [%] | Percentage inhibition (%) at 10 µM (A20, P21580) [%]
1 | Hex-CPPTQFCD-NH2 (bridge 1-7; not fully specified (bridges); printed as Hex-[Cys(tMeBn(DOTA-PP))-Pro-Pro-Thr-Gln-Phe-Cys]-Asp-NH2) [Hex-[Cys(tMeBn(DOTA-PP))-Pro-Pro-Thr-Gln-Phe-Cys]-Asp-NH2] | 2 | -7 | -1 | 14 | -1 | 2 | 10 | 2 | -4
2 | Hex-CPPTQFC-OH (bridge 1-7; not fully specified (bridges); printed as Hex-[Cys(tMeBn(DOTA-AET))-Pro-Pro-Thr-Gln-Phe-Cys]-OH) [Hex-[Cys(tMeBn(DOTA-AET))-Pro-Pro-Thr-Gln-Phe-Cys]-OH] | 4 | 14 | 0 | 0 | 1 | -7 | 8 | 1 | 0
